Laboratory results reported in article PMC2626169 (Developmental biology, 2008).

T1: SEL-10(G567E) (C. elegans, UniProt Q93794 1-587, G567E)
T1 sequence (looked up): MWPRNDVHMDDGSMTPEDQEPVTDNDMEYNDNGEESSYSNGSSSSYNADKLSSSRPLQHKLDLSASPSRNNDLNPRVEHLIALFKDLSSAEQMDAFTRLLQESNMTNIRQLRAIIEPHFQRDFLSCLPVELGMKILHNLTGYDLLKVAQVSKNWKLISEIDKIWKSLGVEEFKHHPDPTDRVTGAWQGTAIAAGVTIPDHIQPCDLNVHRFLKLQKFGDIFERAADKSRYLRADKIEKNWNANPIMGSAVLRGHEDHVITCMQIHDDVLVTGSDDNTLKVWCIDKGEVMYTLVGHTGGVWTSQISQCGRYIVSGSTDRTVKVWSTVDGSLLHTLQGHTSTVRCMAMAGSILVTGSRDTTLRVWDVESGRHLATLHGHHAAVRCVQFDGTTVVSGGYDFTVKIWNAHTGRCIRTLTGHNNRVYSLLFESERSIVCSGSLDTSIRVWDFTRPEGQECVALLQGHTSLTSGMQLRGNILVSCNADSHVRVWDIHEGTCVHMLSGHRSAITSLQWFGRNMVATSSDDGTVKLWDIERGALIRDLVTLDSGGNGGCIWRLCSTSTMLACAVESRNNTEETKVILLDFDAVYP

T2: SEL-10, wild type (C. elegans, UniProt Q93794 1-587)
T2 sequence (looked up): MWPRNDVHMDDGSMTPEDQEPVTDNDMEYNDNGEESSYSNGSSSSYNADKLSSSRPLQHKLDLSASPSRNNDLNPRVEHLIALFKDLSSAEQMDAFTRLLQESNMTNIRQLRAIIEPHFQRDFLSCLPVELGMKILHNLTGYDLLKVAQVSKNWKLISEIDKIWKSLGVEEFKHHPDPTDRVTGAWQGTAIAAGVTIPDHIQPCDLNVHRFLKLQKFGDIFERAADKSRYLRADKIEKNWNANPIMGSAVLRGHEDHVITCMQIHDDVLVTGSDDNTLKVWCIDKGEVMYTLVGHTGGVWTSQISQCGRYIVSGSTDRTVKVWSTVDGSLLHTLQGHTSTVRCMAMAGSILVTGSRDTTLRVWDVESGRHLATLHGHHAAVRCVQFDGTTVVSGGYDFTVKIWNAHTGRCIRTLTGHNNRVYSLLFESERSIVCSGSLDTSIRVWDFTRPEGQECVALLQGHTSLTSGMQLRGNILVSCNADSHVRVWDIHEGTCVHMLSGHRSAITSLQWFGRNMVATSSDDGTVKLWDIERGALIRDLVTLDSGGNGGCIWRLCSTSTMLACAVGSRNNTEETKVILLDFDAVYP


Tests used:
SEL-10(G567E) = target: T1, SEL-10(G567E); test: two-hybrid
SEL-10, wild type = target: T2, SEL-10, wild type; test: two-hybrid

Row | beta-galactosidase activity (CPRG), percent of SKR-1/SEL-10 (SEL-10(G567E)) | beta-galactosidase activity (CPRG), percent of SKR-1/SEL-10 (SEL-10, wild type) | Binder
1 | 3% |  | SKR-1 (Skp1-related 1), wild type (natural protein, C. elegans, UniProt G5ECU1 1-176, looked up) MADQKKVSEAAKEREIKISSSDNEIFLVPRNVIRLSNTINTLLMDLGLDDEEGTNAEPIPVQNVTASILKKVISWCNHHHSDPISTEDSDNREKRTDDIGSWDVEFLKVDQGTLFELILAANYLDIKGLLDVTCKTVANMIKGKSPEEIRRTFNIKNDFTPEEEEQIRKENAWCED
2 | 0.4% | 37% | SKR-1(M140I) (natural protein, C. elegans, UniProt G5ECU1 1-176, looked up) MADQKKVSEAAKEREIKISSSDNEIFLVPRNVIRLSNTINTLLMDLGLDDEEGTNAEPIPVQNVTASILKKVISWCNHHHSDPISTEDSDNREKRTDDIGSWDVEFLKVDQGTLFELILAANYLDIKGLLDVTCKTVANIIKGKSPEEIRRTFNIKNDFTPEEEEQIRKENAWCED
